In paper PMC3210727 one finds Kd data, which are given here for 1 substance.

Where “and” joins values, the source holds several entries; their conditions need not be identical. Identical values can stand only once.

For this assay, the target named is H3N2 A/Hong Kong/1/1968 HA [change] (influenza A virus A/Hong Kong/1/1968 (H3N2)).

The term Kd denotes the free concentration of one partner at which half of the binding sites on the other are occupied at equilibrium, for simple one-to-one binding. A high value points to a looser complex.

For the substance human monoclonal antibody CR8020, the Kd is 2 nM and 3 nM.
